{
  "source": "patent US20220324953A1",
  "about": "(JIANGSU HENGRUI MEDICINE, published 2022)",
  "binders": {"B1": {"name": "Hu164-67yl (antibody, human IgG1, lambda)", "heavy": "EVTLKESGPVLVKPTETLTLTCTVSGFSLSTFGVHWIRQPPGKGLEWLGVIWRRGGTDYNAAFMSRLTISKDTSKSQVVFTMTNMDPVDTATYYCARDGGFDYWGQGTTVTVSSASTKGPSVFPLAPSSKSTSGGTAALGCLVKDYFPEPVTVSWNSGALTSGVHTFPAVLQSSGLYSLSSVVTVPSSSLGTQTYICNVNHKPSNTKVDKKVEPKSCDKTHTCPPCPAPELLGGPSVFLFPPKPKDTLYITREPEVTCVVVDVSHEDPEVKFNWYVDGVEVHNAKTKPREEQYNSTYRVVSVLTVLHQDWLNGKEYKCKVSNKALPAPIEKTISKAKGQPREPQVYTLPPSRDELTKNQVSLTCLVKGFYPSDIAVEWESNGQPENNYKTTPPVLDSDGSFFLYSKLTVDKSRWQQGNVFSCSVMHEALHNHYTQKSLSLSPGK", "light": "ETVVTQEPSLTVSPGGTVTLTCRSSIGAVTTSNYANWVQQKPGQAFRGLIGGTSNRAPWTPARFSGSLLGGKAALTLSGVQPEDEAEYYCALWYSTHYVFGGGTKLTVLGQPKANPTVTLFPPSSEELQANKATLVCLISDFYPGAVTVAWKADGSPVKAGVETTKPSKQSNNKYAASSYLSLTPEQWKSHRSYSCQVTHEGSTVEKTVAPTEC"}},
  "key": {"[1]": {"molecular_target": "T1, human CTGF (antigen of the Biacore assays) (human, UniProt P29279 27-349)", "T1 construct": "also called antigen human CTGF; human CTGF protein", "T1 sequence (looked up)": "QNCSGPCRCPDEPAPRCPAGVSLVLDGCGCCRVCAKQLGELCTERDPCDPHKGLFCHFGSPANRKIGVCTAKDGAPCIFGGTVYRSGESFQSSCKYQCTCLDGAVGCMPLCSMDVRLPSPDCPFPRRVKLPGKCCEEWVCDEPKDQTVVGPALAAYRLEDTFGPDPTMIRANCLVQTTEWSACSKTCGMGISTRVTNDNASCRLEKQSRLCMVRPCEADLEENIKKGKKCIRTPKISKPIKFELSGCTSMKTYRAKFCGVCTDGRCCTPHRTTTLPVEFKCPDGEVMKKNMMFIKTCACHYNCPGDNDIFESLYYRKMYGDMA", "assay": "Biacore, antibody captured on Protein A, CTGF in flow, 1:1 fit", "description": "(§1) A certain amount of each of the test antibodies was affinity-captured with Protein A biosensor chip (Cat. # 29127556, GE), and then a certain concentration of human or mouse CTGF was allowed to flow through the surface of the chip. The reaction signals were detected in real time with Biacore instrument to generate a binding and dissociation curve. After the dissociation was completed in each cycle, the biosensor chip was washed and regenerated with Glycine-HCl regeneration solution pH 1.5 (Cat. # BR-1003-54, GE). The running buffer for the assay was 1×HBS-EP buffer solution (Cat. # BR-1001-88, GE)."}, "[2]": {"molecular_target": "T1, human CTGF (antigen of the Biacore …)", "assay": "Biacore, CTGF immobilised, antibody 150 µg/ml then 50 nM TGF-β1 (competitor TGF-β1)", "protocol": "First, the antigen human CTGF was immobilized onto a CMS biosensor chip (Cat. # BR-1005-30, GE) by amino coupling, with an immobilization level of 1500 RU, and then a high concentration of CTGF antibody (150 μg/ml) was allowed to flow through the surface of the chip for 150 s; 50 nM TGF-β1 protein was injected for 120 s, and the reaction signals were detected in real time with the Biacore T200 instrument to generate a binding and dissociation curve. After the dissociation was completed in each of the experimental cycles, the biosensor chip was washed and regenerated with regeneration buffer.\nThe resulting experimental data were statistically analyzed with GE Biacore T200 Evaluation version 3.0 software."}, "[3]": {"molecular_target": "T2, mouse CTGF (antigen of the Biacore assay) (mouse, UniProt P29268 26-348)", "T2 construct": "also called mouse CTGF protein", "T2 sequence (looked up)": "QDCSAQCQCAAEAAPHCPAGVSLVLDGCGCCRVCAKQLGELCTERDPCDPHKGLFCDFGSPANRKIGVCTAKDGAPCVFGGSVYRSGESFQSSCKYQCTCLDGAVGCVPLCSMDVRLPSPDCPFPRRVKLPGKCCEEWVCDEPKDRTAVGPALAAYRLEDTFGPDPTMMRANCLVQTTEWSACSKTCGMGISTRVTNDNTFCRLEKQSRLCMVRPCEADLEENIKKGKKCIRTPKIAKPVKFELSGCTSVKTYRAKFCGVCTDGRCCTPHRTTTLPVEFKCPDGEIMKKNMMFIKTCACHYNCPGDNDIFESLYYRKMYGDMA", "assay": "Biacore, antibody captured on Protein A, mouse CTGF in flow, 1:1 fit", "description": "as §1"}, "[4]": {"molecular_target": "T3, human CTGF protein (R&D, Cat No. 9190-CC) (human, UniProt P29279 27-349)", "T3 construct": "Bought protein; also called CTGF recombinant protein; CTGF (R&D)", "T3 sequence": "T1 sequence (looked up) with H57D", "assay": "ELISA, plate coated with CTGF (R&D 9190-CC)", "protocol": "The binding activity of anti-human CTGF antibody to human CTGF protein was tested by ELISA assay and Biacore. A 96-well microtiter plate was directly coated with the CTGF recombinant protein. The signal strength upon the addition of the antibody was used to determine the binding activity of the antibody to CTGF. The specific experimental procedures were as follows:\nThe CTGF protein (R&D, Cat No. 9190-CC) was diluted with PBS, pH 7.4 (Shanghai Yuanpei, Cat No. B320) buffer to a concentration of 0.2 μg/ml, 50 μl/well of which was added into the 96-well microtiter plate (Corning, Cat No. CLS3590-100EA), and incubated in an incubator at 37° C. for 2 hours or at 4° C. overnight (16-18 hours). The liquid was removed, 250 μl/ well blocking solution (5% skim milk (BD skim milk, Cat No.232100) diluted in PBS) was added, and incubated in an incubator at 37° C. for 3 hours or at 4° C. overnight (16-18 hours) for blocking. After the blocking was finished, the blocking solution was removed, the plate was washed for 5 times with PBST buffer (PBS containing 0.1% Tween-20, pH 7.4), 50 μl/well of various concentrations of each of the test antibodies (antibodies purified from hybridoma or humanized antibodies) diluted with sample dilution solution were added, and incubated in an incubator at 37° C. for 1 hours. After the incubation was finished, the plate was washed for 3 times with PBST, 50 μl/well of HRP-labeled goat anti-mouse secondary antibody (Jackson Immuno Research, Cat No. 115-035-003) or goat anti-human secondary antibody (Jackson Immuno Research, Cat No. 109-035-003) diluted with sample dilution solution was added, and incubated at 37° C. for 1 hour. The plate was washed for 3 times with PBST, 50 μl/well of TMB chromogenic substrate (KPL, Cat No. 52-00-03) was added, incubated at room temperature for 5-10min, and 50 μl/well of 1 M H₂SO₄ was added to stop the reaction. The absorbance value was read by a microplate reader (Molecular Devices, VERSA max) at a wavelength of 450 nm, and the data was analyzed with GraphPad Prism 5. The binding of CTGF antibody to human CTGF protein was calculated as EC50 value."}},
  "note": "Numbering of substitutions follows the chain as printed.",
  "data": [
    {"binder": "B1", "values": [
      {"measurement": "Kd", "setting": "[1]", "value": 0.0662, "unit": "nM"},
      {"measurement": "koff", "setting": "[1]", "value": 0.00227, "unit": "s⁻¹"},
      {"measurement": "kon", "setting": "[1]", "value": "3.43e+07", "unit": "M⁻¹ s⁻¹"},
      {"measurement": "Function-blocking percentage (%)", "setting": "[2]", "value": 53.9, "unit": "%"},
      {"measurement": "Kd", "setting": "[3]", "value": 0.0363, "unit": "nM"},
      {"measurement": "koff", "setting": "[3]", "value": 0.00194, "unit": "s⁻¹"},
      {"measurement": "kon", "setting": "[3]", "value": "5.34e+07", "unit": "M⁻¹ s⁻¹"},
      {"measurement": "EC50", "setting": "[4]", "value": 0.06, "unit": "nM"}
    ]}
  ]
}
